T1: hiR2-FL-G546A-T7 (human, UniProt Q6PJF5 1-856)
T1 sequence: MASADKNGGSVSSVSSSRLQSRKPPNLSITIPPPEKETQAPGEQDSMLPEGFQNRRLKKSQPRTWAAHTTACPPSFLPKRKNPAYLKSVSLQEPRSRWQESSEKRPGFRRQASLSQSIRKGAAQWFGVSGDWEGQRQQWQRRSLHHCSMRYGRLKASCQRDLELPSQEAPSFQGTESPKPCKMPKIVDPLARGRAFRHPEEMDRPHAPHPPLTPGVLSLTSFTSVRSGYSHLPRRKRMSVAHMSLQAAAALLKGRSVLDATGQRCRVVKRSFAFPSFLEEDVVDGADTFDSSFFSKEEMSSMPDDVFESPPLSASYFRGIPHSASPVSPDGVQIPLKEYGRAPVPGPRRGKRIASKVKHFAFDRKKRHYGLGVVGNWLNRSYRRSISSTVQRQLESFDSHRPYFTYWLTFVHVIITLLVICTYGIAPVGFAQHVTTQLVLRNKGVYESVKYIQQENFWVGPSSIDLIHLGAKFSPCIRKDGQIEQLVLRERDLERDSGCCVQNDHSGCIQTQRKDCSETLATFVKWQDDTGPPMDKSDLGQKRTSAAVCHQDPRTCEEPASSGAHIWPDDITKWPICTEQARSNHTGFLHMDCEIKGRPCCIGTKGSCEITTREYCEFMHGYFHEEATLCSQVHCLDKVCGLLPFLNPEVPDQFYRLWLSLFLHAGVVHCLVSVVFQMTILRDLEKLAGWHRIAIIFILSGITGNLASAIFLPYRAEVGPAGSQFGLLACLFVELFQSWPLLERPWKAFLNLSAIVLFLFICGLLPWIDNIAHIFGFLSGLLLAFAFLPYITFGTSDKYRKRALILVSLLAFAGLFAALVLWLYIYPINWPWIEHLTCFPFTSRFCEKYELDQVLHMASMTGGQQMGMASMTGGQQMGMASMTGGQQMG

T2: hiR1-FL-WT-T7 (human, UniProt Q96CC6 1-855)
T2 construct: on MEF-DKO cells
T2 sequence: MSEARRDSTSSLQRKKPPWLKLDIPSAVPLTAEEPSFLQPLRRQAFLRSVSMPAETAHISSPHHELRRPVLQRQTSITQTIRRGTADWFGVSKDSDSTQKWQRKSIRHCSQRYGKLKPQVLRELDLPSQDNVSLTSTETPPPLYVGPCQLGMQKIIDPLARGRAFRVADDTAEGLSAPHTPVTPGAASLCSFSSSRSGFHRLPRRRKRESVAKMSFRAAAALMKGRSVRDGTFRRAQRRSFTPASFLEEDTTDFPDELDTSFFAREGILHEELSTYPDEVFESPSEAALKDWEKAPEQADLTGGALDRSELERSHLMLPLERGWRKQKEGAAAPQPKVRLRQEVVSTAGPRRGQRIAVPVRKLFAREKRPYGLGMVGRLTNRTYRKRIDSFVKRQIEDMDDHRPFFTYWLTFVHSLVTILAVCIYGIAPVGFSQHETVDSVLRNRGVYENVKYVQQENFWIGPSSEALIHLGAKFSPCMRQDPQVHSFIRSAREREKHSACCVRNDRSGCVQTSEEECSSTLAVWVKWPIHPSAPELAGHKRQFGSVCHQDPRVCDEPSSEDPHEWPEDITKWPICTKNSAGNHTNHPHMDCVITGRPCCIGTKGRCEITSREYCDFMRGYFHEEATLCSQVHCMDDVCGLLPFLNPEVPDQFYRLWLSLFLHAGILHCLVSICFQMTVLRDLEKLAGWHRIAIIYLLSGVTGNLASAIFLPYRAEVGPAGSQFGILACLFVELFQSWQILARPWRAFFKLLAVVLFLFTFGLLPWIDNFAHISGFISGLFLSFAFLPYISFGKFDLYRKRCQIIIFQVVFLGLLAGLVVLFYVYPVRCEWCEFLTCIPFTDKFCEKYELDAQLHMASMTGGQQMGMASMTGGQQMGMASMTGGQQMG


Tests used:
hiR2-FL-G546A-T7 = molecular target: T1, hiR2-FL-G546A-T7; test: FACS on MEF-DKO cells
hiR1-FL-WT-T7 = molecular target: T2, hiR1-FL-WT-T7; test: FACS, MEF-DKO-hiR1-FL-WT-T7 cells

Row | Binder | binding result (hiR2-FL-G546A-T7) | binding result (hiR1-FL-WT-T7)
1 | antibody 5 (antibody, V domains shown, mouse IgG, kappa light chain; also called clone #5; purified antibody 5) VH: QVTLKESGPGILQPSQTLSLTCSFSGFSLSTFGMGVGWIRQPSGKGLEWLAHIWWDDEKYYNSALKSRLTISKATSKNQAFLKIANVDTADTATYYCARISNYGSNYWYFNVWGTGTTVTVSS VL: QVVLTQSPALMSASPGEKVTMTCSAGSSVSCMYWYQQKPGSSPRVLIYDTSNLASGVPARFTGSGSGTSYSLTISRMEAEDAASYYCQQWNSYPLTFGAGTKLELK | no binding (tested: 3 µg/ml) | –
2 | antibody 48 (antibody, V domains shown, mouse IgG, kappa light chain; also called clone #48; purified antibody 48) VH: QVQLQQSGTELVRPGTSVKVSCKASGYAFTNYLIEWVKQRPGQGLEWIGVINPGSGFTKYNEKFKGKATLTADKSSSTVYMHLSSLTSEDSAVYFCARGLYRAMDYWGQGTSVTVSS VL: DIQMTQSPASQSASLGESVTITCLASQTIATWLAWYQQKPGKSPQLLIYGATTLADGVPSRFSGGGSGTKFSFKISSLQAEDFVSYYCQQLYSTPYTFGGGTKLEIK | – | no binding (tested: 3 µg/ml)
